Reference: paper PMC8313134, “Jasmonate‐ and abscisic acid‐activated AaGSW1‐AaTCP15/AaORA transcriptional cascade promotes artemisinin biosynthesis in Artemisia annua”

What was measured:
Details in all cases: protein: recombinant; tags: His-TF (trigger factor), pCold-TF; chain copies: 2; blunt
AaTCP15 [1] = biological target: T1, AaTCP15 (Artemisia annua, UniProt A0A8E3YC86 1-384); assay: EMSA; cold Aq competitor reduces shift; not given; EMSA as described in Ma et al. 2018; cold competitor 10x, 20x, 40x
AaTCP15 [2] = biological target: T1, AaTCP15; assay: EMSA; cold Dq competitor reduces shift; not given; EMSA as described in Ma et al. 2018; cold competitor 10x, 20x, 40x
AaTCP15 [3] = biological target: T1, AaTCP15; assay: EMSA; not given; EMSA as described in Ma et al. 2018; cold competitor 10x, 20x, 40x

T1 sequence (A0A8E3YC86 entry or part of it): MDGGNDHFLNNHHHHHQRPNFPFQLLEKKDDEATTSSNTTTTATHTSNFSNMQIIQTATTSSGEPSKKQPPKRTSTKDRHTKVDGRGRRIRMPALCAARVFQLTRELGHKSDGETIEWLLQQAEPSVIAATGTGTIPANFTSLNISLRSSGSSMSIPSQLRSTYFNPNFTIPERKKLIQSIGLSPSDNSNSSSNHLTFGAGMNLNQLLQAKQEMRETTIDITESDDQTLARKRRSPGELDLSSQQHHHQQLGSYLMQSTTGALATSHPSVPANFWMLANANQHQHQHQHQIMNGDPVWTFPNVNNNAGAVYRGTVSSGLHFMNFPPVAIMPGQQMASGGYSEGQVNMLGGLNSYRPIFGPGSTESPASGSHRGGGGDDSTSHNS

B1: Aq probe (ALDH1 promoter) (dsDNA)
DNA 1: GGTTGGTTGCATTATCTGGCCCCACCGTAAACAATCAAATGC
DNA 2: GCATTTGATTGTTTACGGTGGGGCCAGATAATGCAACCAACC
binding result (AaTCP15 [1]): binds

B2: Dq probe (DBR2 promoter) (dsDNA)
DNA 1: GTCGCTAAACTTGCCACGGTCCCACTTTTTCAACTCTTATTA
DNA 2: TAATAAGAGTTGAAAAAGTGGGACCGTGGCAAGTTTAGCGAC
binding result (AaTCP15 [2]): binds

B3: Dq mutated probe (dsDNA)
DNA 1: GTCGCTAAACTTGCCACGGTAAACATTTTTCAACTCTTATTA
DNA 2: TAATAAGAGTTGAAAAATGTTTACCGTGGCAAGTTTAGCGAC
binding result (AaTCP15 [3]): no binding
